B1: NCKAP1 (protein, UniProt Q9Y2A7 2-1128, looked up)
Nck-associated protein 1: SRSVLQPSQQKLAEKLTILNDRGVGMLTRLYNIKKACGDPKAKPSYLIDKNLESAVKFIVRKFPAVETRNNNQQLAQLQKEKSEILKNLALYYFTFVDVMEFKDHVCELLNTIDVCQVFFDITVNFDLTKNYLDLIITYTTLMILLSRIEERKAIIGLYNYAHEMTHGASDREYPRLGQMIVDYENPLKKMMEEFVPHSKSLSDALISLQMVYPRRNLSADQWRNAQLLSLISAPSTMLNPAQSDTMPCEYLSLDAMEKWIIFGFILCHGILNTDATALNLWKLALQSSSCLSLFRDEVFHIHKAAEDLFVNIRGYNKRINDIRECKEAAVSHAGSMHRERRKFLRSALKELATVLSDQPGLLGPKALFVFMALSFARDEIIWLLRHADNMPKKSADDFIDKHIAELIFYMEELRAHVRKYGPVMQRYYVQYLSGFDAVVLNELVQNLSVCPEDESIIMSSFVNTMTSLSVKQVEDGEVFDFRGMRLDWFRLQAYTSVSKASLGLADHRELGKMMNTIIFHTKMVDSLVEMLVETSDLSIFCFYSRAFEKMFQQCLELPSQSRYSIAFPLLCTHFMSCTHELCPEERHHIGDRSLSLCNMFLDEMAKQARNLITDICTEQCTLSDQLLPKHCAKTISQAVNKKSKKQTGKKGEPEREKPGVESMRKNRLVVTNLDKLHTALSELCFSINYVPNMVVWEHTFTPREYLTSHLEIRFTKSIVGMTMYNQATQEIAKPSELLTSVRAYMTVLQSIENYVQIDITRVFNNVLLQQTQHLDSHGEPTITSLYTNWYLETLLRQVSNGHIAYFPAMKAFVNLPTENELTFNAEEYSDISEMRSLSELLGPYGMKFLSESLMWHISSQVAELKKLVVENVDVLTQMRTSFDKPDQMAALFKRLSSVDSVLKRMTIIGVILSFRSLAQEALRDVLSYHIPFLVSSIEDFKDHIPRETDMKVAMNVYELSSAAGLPCEIDPALVVALSSQKSENISPEEEYKIACLLMVFVAVSLPTLASNVMSQYSPAIEGHCNNIHCLAKAINQIAAALFTIHKGSIEDRLKEFLALASSSLLKIGQETDKTTTRNRESVYLLLDMIVQESPFLTMDLLESCFPYVLLRNAYHAVYKQSVTSSA
B2: NUP54 (protein, UniProt Q7Z3B4 1-507, looked up)
Nucleoporin p54: MAFNFGAPSGTSGTAAATAAPAGGFGGFGTTSTTAGSAFSFSAPTNTGTTGLFGGTQNKGFGFGTGFGTTTGTSTGLGTGLGTGLGFGGFNTQQQQQTTLGGLFSQPTQAPTQSNQLINTASALSAPTLLGDERDAILAKWNQLQAFWGTGKGYFNNNIPPVEFTQENPFCRFKAVGYSCMPSNKDEDGLVVLVFNKKETEIRSQQQQLVESLHKVLGGNQTLTVNVEGTKTLPDDQTEVVIYVVERSPNGTSRRVPATTLYAHFEQANIKTQLQQLGVTLSMTRTELSPAQIKQLLQNPPAGVDPIIWEQAKVDNPDSEKLIPVPMVGFKELLRRLKVQDQMTKQHQTRLDIISEDISELQKNQTTSVAKIAQYKRKLMDLSHRTLQVLIKQEIQRKSGYAIQADEEQLRVQLDTIQGELNAPTQFKGRLNELMSQIRMQNHFGAVRSEERYYIDADLLREIKQHLKQQQEGLSHLISIIKDDLEDIKLVEHGLNETIHIRGGVFS
B3: NUP85 (protein, UniProt Q9BW27 1-656, looked up)
Nuclear pore complex protein …: MEELDGEPTVTLIPGVNSKKNQMYFDWGPGEMLVCETSFNKKEKSEMVPSCPFIYIIRKDVDVYSQILRKLFNESHGIFLGLQRIDEELTGKSRKSQLVRVSKNYRSVIRACMEEMHQVAIAAKDPANGRQFSSQVSILSAMELIWNLCEILFIEVAPAGPLLLHLLDWVRLHVCEVDSLSADVLGSENPSKHDSFWNLVTILVLQGRLDEARQMLSKEADASPASAGICRIMGDLMRTMPILSPGNTQTLTELELKWQHWHEECERYLQDSTFATSPHLESLLKIMLGDEAALLEQKELLSNWYHFLVTRLLYSNPTVKPIDLHYYAQSSLDLFLGGESSPEPLDNILLAAFEFDIHQVIKECSIALSNWWFVAHLTDLLDHCKLLQSHNLYFGSNMREFLLLEYASGLFAHPSLWQLGVDYFDYCPELGRVSLELHIERIPLNTEQKALKVLRICEQRQMTEQVRSICKILAMKAVRNNRLGSALSWSIRAKDAAFATLVSDRFLRDYCERGCFSDLDLIDNLGPAMMLSDRLTFLGKYREFHRMYGEKRFADAASLLLSLMTSRIAPRSFWMTLLTDALPLLEQKQVIFSAEQTYELMRCLEDLTSRRPVHGESDTEQLQDDDIETTKVEMLRLSLARNLARAIIREGSLEGS
B4: NUP160 (protein, UniProt Q12769 1-1436, looked up)
Nuclear pore complex protein …: MLHLSAAPPAPPPEVTATARPCLCSVGRRGDGGKMAAAGALERSFVELSGAERERPRHFREFTVCSIGTANAVAGAVKYSESAGGFYYVESGKLFSVTRNRFIHWKTSGDTLELMEESLDINLLNNAIRLKFQNCSVLPGGVYVSETQNRVIILMLTNQTVHRLLLPHPSRMYRSELVVDSQMQSIFTDIGKVDFTDPCNYQLIPAVPGISPNSTASTAWLSSDGEALFALPCASGGIFVLKLPPYDIPGMVSVVELKQSSVMQRLLTGWMPTAIRGDQSPSDRPLSLAVHCVEHDAFIFALCQDHKLRMWSYKEQMCLMVADMLEYVPVKKDLRLTAGTGHKLRLAYSPTMGLYLGIYMHAPKRGQFCIFQLVSTESNRYSLDHISSLFTSQETLIDFALTSTDIWALWHDAENQTVVKYINFEHNVAGQWNPVFMQPLPEEEIVIRDDQDPREMYLQSLFTPGQFTNEALCKALQIFCRGTERNLDLSWSELKKEVTLAVENELQGSVTEYEFSQEEFRNLQQEFWCKFYACCLQYQEALSHPLALHLNPHTNMVCLLKKGYLSFLIPSSLVDHLYLLPYENLLTEDETTISDDVDIARDVICLIKCLRLIEESVTVDMSVIMEMSCYNLQSPEKAAEQILEDMITIDVENVMEDICSKLQEIRNPIHAIGLLIREMDYETEVEMEKGFNPAQPLNIRMNLTQLYGSNTAGYIVCRGVHKIASTRFLICRDLLILQQLLMRLGDAVIWGTGQLFQAQQDLLHRTAPLLLSYYLIKWGSECLATDVPLDTLESNLQHLSVLELTDSGALMANRFVSSPQTIVELFFQEVARKHIISHLFSQPKAPLSQTGLNWPEMITAITSYLLQLLWPSNPGCLFLECLMGNCQYVQLQDYIQLLHPWCQVNVGSCRFMLGRCYLVTGEGQKALECFCQAASEVGKEEFLDRLIRSEDGEIVSTPRLQYYDKVLRLLDVIGLPELVIQLATSAITEAGDDWKSQATLRTCIFKHHLDLGHNSQAYEALTQIPDSSRQLDCLRQLVVVLCERSQLQDLVEFPYVNLHNEVVGIIESRARAVDLMTHNYYELLYAFHIYRHNYRKAGTVMFEYGMRLGREVRTLRGLEKQGNCYLAALNCLRLIRPEYAWIVQPVSGAVYDRPGASPKRNHDGECTAAPTNRQIEILELEDLEKECSLARIRLTLAQHDPSAVAVAGSSSAEEMVTLLVQAGLFDTAISLCQTFKLPLTPVFEGLAFKCIKLQFGGEAAQAEAWAWLAANQLSSVITTKESSATDEAWRLLSTYLERYKVQNNLYHHCVINKLLSHGVPLPNWLINSYKKVDAAELLRLYLNYDLLEEAVDLVSEYVDAVLGKGHQYFGIEFPLSATAPMVWLPYSSIDQLLQALGENSANSHNIALSQKILDKLEDYQQKVDKATRDLLYRRTL
B5: NOP14 (protein, UniProt P78316 1-857, looked up)
Nucleolar protein 14: MAKAKKVGARRKASGAPAGARGGPAKANSNPFEVKVNRQKFQILGRKTRHDVGLPGVSRARALRKRTQTLLKEYKERDKSNVFRDKRFGEYNSNMSPEEKMMKRFALEQQRHHEKKSIYNLNEDEELTHYGQSLADIEKHNDIVDSDSDAEDRGTLSAELTAAHFGGGGGLLHKKTQQEGEEREKPKSRKELIEELIAKSKQEKRERQAQREDALELTEKLDQDWKEIQTLLSHKTPKSENRDKKEKPKPDAYDMMVRELGFEMKAQPSNRMKTEAELAKEEQEHLRKLEAERLRRMLGKDEDENVKKPKHMSADDLNDGFVLDKDDRRLLSYKDGKMNVEEDVQEEQSKEASDPESNEEEGDSSGGEDTEESDSPDSHLDLESNVESEEENEKPAKEQRQTPGKGLISGKERAGKATRDELPYTFAAPESYEELRSLLLGRSMEEQLLVVERIQKCNHPSLAEGNKAKLEKLFGFLLEYVGDLATDDPPDLTVIDKLVVHLYHLCQMFPESASDAIKFVLRDAMHEMEEMIETKGRAALPGLDVLIYLKITGLLFPTSDFWHPVVTPALVCLSQLLTKCPILSLQDVVKGLFVCCLFLEYVALSQRFIPELINFLLGILYIATPNKASQGSTLVHPFRALGKNSELLVVSAREDVATWQQSSLSLRWASRLRAPTSTEANHIRLSCLAVGLALLKRCVLMYGSLPSFHAIMGPLQALLTDHLADCSHPQELQELCQSTLTEMESQKQLCRPLTCEKSKPVPLKLFTPRLVKVLEFGRKQGSSKEEQERKRLIHKHKREFKGAVREIRKDNQFLARMQLSEIMERDAERKRKVKQLFNSLATQEGEWKALKRKKFKK
B6: PRPF31 (protein, UniProt Q8WWY3 1-499, looked up)
U4/U6 small nuclear …: MSLADELLADLEEAAEEEEGGSYGEEEEEPAIEDVQEETQLDLSGDSVKTIAKLWDSKMFAEIMMKIEEYISKQAKASEVMGPVEAAPEYRVIVDANNLTVEIENELNIIHKFIRDKYSKRFPELESLVPNALDYIRTVKELGNSLDKCKNNENLQQILTNATIMVVSVTASTTQGQQLSEEELERLEEACDMALELNASKHRIYEYVESRMSFIAPNLSIIIGASTAAKIMGVAGGLTNLSKMPACNIMLLGAQRKTLSGFSSTSVLPHTGYIYHSDIVQSLPPDLRRKAARLVAAKCTLAARVDSFHESTEGKVGYELKDEIERKFDKWQEPPPVKQVKPLPAPLDGQRKKRGGRRYRKMKERLGLTEIRKQANRMSFGEIEEDAYQEDLGFSLGHLGKSGSGRVRQTQVNEATKARISKTLQRTLQKQSVVYGGKSTIRDRSSGTASSVAFTPLQGLEIVNPQAAEKKVAEANQKYFSSMAEFLKVKGEKSGLMST

tested on: Hsp90 complexes in K562 cell extract; assay: Nano-LC-MS/MS of PU-beads pull-downs; type: binding; settings: protein identified in PU-beads pull-down of K562 cell extract, Prep 1; QSTAR-Elite QTof MS
Procedure, shortened: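 Lysates pre-cleared overnight at 4 °C with control beads, then pulled down with PU-beads or control beads; eluted proteins (2% SDS boil) gel-separated and analysed by nano LC-MS/MS on a QTof. Mascot identification (p<0.05), spectral counts and sequence coverage evaluated in Scaffold.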

Going from B1 to B2, the “Number of Assigned Spectra, K562 Prep 1” value falls from 5 to 1.

Going from B3 to B4, the “Number of Assigned Spectra, K562 Prep 1” value falls from 14 to 13.

Going from B5 to B6, the “Number of Assigned Spectra, K562 Prep 1” value falls from 9 to 3.

same assay, conditions: protein identified in PU-beads pull-down of K562 cell extract, Prep 2; QSTAR-Elite QTof MS

Going from B1 to B2, the “Number of Assigned Spectra, K562 Prep 2” value rises from 1 to 7.

First: B3
Second: B4
The “Number of Assigned Spectra, K562 Prep 2” value of the first is higher: 2 for the first, 1 for the second.

B5 and B6 are the same in “Number of Assigned Spectra, K562 Prep 2” value: 2 for the first, 2 for the second.

tested on: Hsp90 complexes in Mia-PaCa-2 cell extract; assay: Nano-LC-MS/MS of PU-beads pull-downs; type: binding, human; settings: protein identified in PU-beads pull-down of Mia-PaCa-2 cell extract; QSTAR-Elite QTof MS
Procedure, shortened: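 Lysates pre-cleared overnight at 4 °C with control beads underwent PU-bead pull-down; bound proteins were SDS-eluted, gel-separated, digested and analyzed by nano-LC-MS/MS on a QTof. Identifications used significance p<0.05, 0.4 Da tolerances and one missed cleavage; unique peptide (spectral) counts and sequence coverage were reported.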

Going from B1 to B2, the “Number of Assigned Spectra, Mia-Paca 2” value falls from 2 to 0.

B3 and B4 are the same in “Number of Assigned Spectra, Mia-Paca 2” value: 0 for the first, 0 for the second.

B5 and B6 are the same in “Number of Assigned Spectra, Mia-Paca 2” value: 0 for the first, 0 for the second.

— patent US20220074941A1, “HSP90 COMBINATION THERAPY” (Sloan-Kettering Institute for Cancer Research, priority 2011, published 2022)
